Target: Smlt3024 (Stenotrophomonas maltophilia K279a) (UniProt B2FJJ5)
Assay: SEC-MALS; Superdex 200 10/300 GL coupled to a Wyatt MALS detector; isolated proteins and their mixture analysed, peaks checked by SDS-PAGE; dn/dc = 0.185 mL/g

## Smlt3025_(86-333) (domain or fragment)
  stoichiometry N (Smlt3024:Smlt3025 (86-333) ratio): 1
